Source: patent US6887705B1, “Tyrosine phosphorylated cleavage furrow-associated proteins (PSTPIPs)” (Genentech, Inc., priority 1997, dated 2005)

Assays:
Experiment in all cases: in vitro translated PTP HSCF mutant precipitated with 1 or 10 µg/ml GST PST PIP
[1] = target: T1, PTP HSCF with W450 mutated to alanine, HA tagged (UniProt Q61152 1-453)
T1 construct: range 1-453; also called HSCF W450
T1 sequence (looked up): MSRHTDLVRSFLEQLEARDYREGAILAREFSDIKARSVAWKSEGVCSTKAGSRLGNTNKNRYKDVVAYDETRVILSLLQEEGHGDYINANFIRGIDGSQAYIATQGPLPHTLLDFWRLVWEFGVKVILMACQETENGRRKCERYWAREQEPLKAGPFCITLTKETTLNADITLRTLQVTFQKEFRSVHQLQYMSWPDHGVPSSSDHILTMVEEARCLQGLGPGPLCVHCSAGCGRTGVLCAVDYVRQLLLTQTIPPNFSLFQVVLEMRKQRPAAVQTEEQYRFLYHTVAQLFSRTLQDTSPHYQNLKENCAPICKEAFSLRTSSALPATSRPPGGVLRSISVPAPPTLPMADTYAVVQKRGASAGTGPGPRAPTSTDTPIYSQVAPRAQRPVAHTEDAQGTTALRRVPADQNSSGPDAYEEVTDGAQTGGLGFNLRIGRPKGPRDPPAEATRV
Description: (§1) Multiple bands precipitated with the GST PST PIP fusion protein are apparently C-terminal proteolyzed products of the PTP. Also shown are GST PST PIP precipitations (10 μg/ml) performed on a double mutant of PTP HSCF (R+W) with both residues $R444$ and $W450$ mutated to alanine (bottom panel FIG. 14 A/2). B. COS cells were co-transfected with a 10:1 ratio of plasmids encoding hemagglutinin (HA) tagged PTP HSCF with the illustrated alanine substitutions or a mutant of PTP HSCF deleted for the C-terminal 24 amino acids (PTP $HSCFD24$) and wild type PST PIP with a C-terminal FLAG epitope tag, respectively. Transfected cell lysates were immunoprecipitated with anti-HA monoclonal antibodies and the precipitates were blotted with anti-PST PIP polyclonal antibody to detect the relative amounts of PST PIP complexed with either wild type or different mutant forms of PTP HSCF. Lysates were also immunoprecipitated with anti-HA antibody and blotted with the same antibody to insure equal expression of PTP HSCF. Equal expression of PSTPIP was determined by immunoprecipitating lysates with anti-FLAG monoclonal antibody and blotting with anti-PST PIP polyclonal antibody.
(§2) In vitro binding analyses between various PTP HSCF and PST PIP constructs were performed as previously described (Spencer et al, (1997), supra). Briefly, plasmids were transcribed and translated in vitro using the TnT Rabbit Reticulocyte Lysate System (Promega). Samples were diluted in 50 mM HEPES, pH 7.2, 1% triton X-100, 10% glycerol, 100 mM NaCl, and 2 µg/ml each of leupeptin, pepstatin, aprotinin and PMSF (lysis buffer). Samples were than reacted with GST fusion proteins at various concentrations, and the bound proteins were centrifuged using glutathione-sepharose beads and analyzed on SDS polyacrylamide gels. C-terminally-derived peptide inhibition studies were performed by incubating the GST fusion protein binding reactions in the presence of 10 µg/ml of the indicated peptides. Peptides were produced by FMOC-protected amino acids as previously described (Spencer et al, (1997), supra). In vivo interactions between various forms of PTP HSCF and PST PIP were also performed as previously described (Spencer et al, (1997), supra).

[2] = target: T2, PTP HSCF with R444 mutated to alanine, HA tagged (UniProt Q61152 1-453)
T2 construct: range 1-453; also called HSCF R444
T2 sequence (looked up): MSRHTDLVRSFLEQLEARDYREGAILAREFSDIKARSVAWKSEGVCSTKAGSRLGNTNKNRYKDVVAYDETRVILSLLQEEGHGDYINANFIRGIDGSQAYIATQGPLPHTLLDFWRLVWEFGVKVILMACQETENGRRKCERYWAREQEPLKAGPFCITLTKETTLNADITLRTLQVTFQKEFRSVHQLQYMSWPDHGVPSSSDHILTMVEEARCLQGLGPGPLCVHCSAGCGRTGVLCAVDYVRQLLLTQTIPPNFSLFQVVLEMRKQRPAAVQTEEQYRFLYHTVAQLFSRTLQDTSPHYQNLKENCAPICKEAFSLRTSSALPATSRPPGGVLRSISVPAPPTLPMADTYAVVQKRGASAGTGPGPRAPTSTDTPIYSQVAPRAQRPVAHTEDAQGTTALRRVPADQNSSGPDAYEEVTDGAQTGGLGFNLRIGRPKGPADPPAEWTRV
Description: as §1, §2

[3] = target: T3, PTP HSCF with P440 mutated to alanine, HA tagged (UniProt Q61152 1-453)
T3 construct: range 1-453; also called HSCF P440
T3 sequence (looked up): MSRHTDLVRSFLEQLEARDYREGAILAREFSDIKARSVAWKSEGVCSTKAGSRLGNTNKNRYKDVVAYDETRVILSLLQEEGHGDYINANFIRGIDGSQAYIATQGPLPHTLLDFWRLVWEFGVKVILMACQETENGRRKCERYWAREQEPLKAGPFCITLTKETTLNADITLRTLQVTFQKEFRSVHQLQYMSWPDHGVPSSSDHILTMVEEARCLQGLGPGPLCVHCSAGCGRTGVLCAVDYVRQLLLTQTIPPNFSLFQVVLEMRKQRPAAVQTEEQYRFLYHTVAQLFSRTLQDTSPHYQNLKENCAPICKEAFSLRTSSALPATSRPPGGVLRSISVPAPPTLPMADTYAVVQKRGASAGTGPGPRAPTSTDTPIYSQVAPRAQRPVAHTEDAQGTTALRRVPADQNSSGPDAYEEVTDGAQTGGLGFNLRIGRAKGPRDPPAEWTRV
Description: as §1, §2

[4] = target: T4, PTP HSCF with P443 mutated to alanine, HA tagged (UniProt Q61152 1-453)
T4 construct: range 1-453; also called HSCF P443
T4 sequence (looked up): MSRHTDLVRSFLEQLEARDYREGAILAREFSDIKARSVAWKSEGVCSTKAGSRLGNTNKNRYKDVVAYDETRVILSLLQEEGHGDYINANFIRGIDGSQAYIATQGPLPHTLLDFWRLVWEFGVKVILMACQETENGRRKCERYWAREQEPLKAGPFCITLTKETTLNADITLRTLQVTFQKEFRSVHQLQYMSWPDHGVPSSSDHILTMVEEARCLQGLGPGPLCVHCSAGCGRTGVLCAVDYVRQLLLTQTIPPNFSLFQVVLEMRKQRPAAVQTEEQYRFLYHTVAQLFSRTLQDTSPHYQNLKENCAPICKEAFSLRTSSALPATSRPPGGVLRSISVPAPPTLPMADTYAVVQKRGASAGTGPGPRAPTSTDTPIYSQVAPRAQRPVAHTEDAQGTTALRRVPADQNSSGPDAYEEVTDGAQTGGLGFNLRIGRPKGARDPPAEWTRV
Description: as §1, §2

Measured: binding result

B1: GST-PSTPIP (GST fusion of full-length PSTPIP, amino acids 2-415) (other)
chain: MAQLQFRDAFWCRDFTAHTGYEVLLQRLLDGRKMCKDVEELLRQRAQAEERYGKELVQIARKAGGQTEMNSLRTSFDSLKQQTENVGSAHIQLALALREELRSLEEFRERQKEQRKKYEAIMDRVQKSKLSLYKKTMESKKAYDQKCRDADDAEQAFERVSANGHQKQVEKSQNKAKQCKESATEAERVYRQNIEQLERARTEWEQEHRTTCEAFQLQEFDRLTILRNALWVHCNQLSMQCVKDDELYEEVRLTLEGCDVEGDINGFIQSKSTGREPPAPVPYQNYYDREVTPLIGSPSIQPSCGVIKRFSGLLHGSPKTTPSAPAASTETLTPTPERNELVYASIEVQATQGNLNSSAQDYRALYDYTAQNSDELDISAGDILAVILEGEDGWWTVERNGQRGFVPGSYLEKL
notes: Made in DH5-alpha bacteria from pGEX4T-2; also called GST-full-length PSTPIP; GST PTP PIP; not shown: glutathione S-transferase encoded by pGEX-4T-2 (Pharmacia)
binds: all assays above
